Results on 120 sequences are retold here after the supplement of paper PMC10126150.

± gives the standard deviation of the averaged measurements.

This series has as its system ATP. The experiment in a line: switch fluorescence ratio, 500 uM ATP over buffer (Cy3 cluster intensity, sum of 5 cycles each) (fold (ratio)); higher = stronger signal-on switching upon ATP binding; sequences stand for … in TCGTCGGCAGCGTCAGATGTGTATAAGAGACAGTTTTTTTTTTTTTTTTTTTTTTTTT…TC. The conditions noted are these: aptamer strand: ATP DNA aptamer (quencher-CACCTGGGGGAGTATTGCGGAGGAAGG + anchor), 100 nM annealed; ATP concentration: 500 uM. In short, it runs like this:
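Switching-strand clusters labelled with Cy3 on a modified Illumina MiSeq flow-cell were annealed to 100 nM quencher-labelled ATP aptamer, imaged in selection buffer, and re-imaged after 15 min with 500 uM ATP at 22 °C. This was done over five cycles with NaOH stripping and re-annealing in between. The fluorescence ratio is summed target-cycle over summed buffer-cycle Cy3 intensity per cluster, averaged per switch-domain sequence, excluding clusters outside 100-1000 RFU.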
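Note: ATP exposure 15 min at 22 °C before imaging.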

As to AGAACAGCAT, the switch fluorescence ratio came out at 1.01 ± 0.021.

For the sequence GTGATTTTTT, the switch fluorescence ratio amounted to 1.01 ± 0.019.

For the sequence GGGCATAGGA, the switch fluorescence ratio was found to be 1.03 ± 0.097.

Regarding ATCGGTGACA, the switch fluorescence ratio stood at 1 ± 0.035.

For the sequence AGGGTCTCAT, the switch fluorescence ratio stood at 1.02 ± 0.022.

Regarding TCTTTTATGG, the switch fluorescence ratio was determined as 1.04 ± 0.093.

Consider GCTCTATGTA, for which the switch fluorescence ratio turned out to be 1.03 ± 0.014.

Turning to GTGGCTGCGT, the switch fluorescence ratio came to 0.9776 ± 0.0063.

As to TCTAAGTATT, the switch fluorescence ratio came out at 1.02 ± 0.026.

AACTGTTGGG: the switch fluorescence ratio worked out at 0.9928 ± 0.002.

For the sequence AGGGGTCCCG, the switch fluorescence ratio is 0.93546 ± 0.00063.

Turning to GAACTGGTAG, the switch fluorescence ratio was determined as 0.992 ± 0.035.

Take AGGTGCTACG: the switch fluorescence ratio stood at 1.03 ± 0.012.

As to ACAAGGAGGC, the switch fluorescence ratio amounted to 0.983 ± 0.014.

ACATCCAATT: the switch fluorescence ratio amounted to 0.99 ± 0.019.

Consider CACTAGTGGG, for which the switch fluorescence ratio amounted to 1 ± 0.0024.

As to GATTTAAGGG, the switch fluorescence ratio turned out to be 0.993 ± 0.018.

Consider TCTTTTAATT, for which the switch fluorescence ratio was 1.05 ± 0.07.

On to AGGTTGTCAA, for which the switch fluorescence ratio is 0.969 ± 0.028.

As to GGCATTGAGG, the switch fluorescence ratio turned out to be 0.988 ± 0.04.

Regarding CAGTGGGTCT, the switch fluorescence ratio was 0.992 ± 0.017.

Take TTTAACTTAG: the switch fluorescence ratio came to 1.016 ± 0.0032.

With CCGTTGTTCG, the switch fluorescence ratio was found to be 1.02 ± 0.027.

For TTAAGGGTCC, the switch fluorescence ratio is 0.984 ± 0.061.

Consider GGACTGTTTG, for which the switch fluorescence ratio worked out at 1.01 ± 0.041.

Take GTTGCGCGTC: the switch fluorescence ratio was determined as 1.03 ± 0.024.

As for GATGGGGGTG, the switch fluorescence ratio was 1.02 ± 0.053.

On to ATACGCAGGG, for which the switch fluorescence ratio was 1.06 ± 0.061.

Regarding TTTAGGACGC, the switch fluorescence ratio worked out at 1.02 ± 0.022.

Take GTGGTTTTGA: the switch fluorescence ratio is 0.9832 ± 0.0064.

For the sequence GCGATAGACG, the switch fluorescence ratio was found to be 0.99 ± 0.022.

Take CGCTACTGTT: the switch fluorescence ratio came to 1.079 ± 0.0014.

Turning to ACATTGGTGG, the switch fluorescence ratio was determined as 0.993 ± 0.026.

For the sequence TTTATTAGTT, the switch fluorescence ratio worked out at 0.998 ± 0.025.

Consider GGATTTTGGG, for which the switch fluorescence ratio stood at 1.01 ± 0.028.

GTGGGGAGAG: the switch fluorescence ratio stood at 0.9602 ± 0.0078.

As to TTTATTTAGC, the switch fluorescence ratio came to 1.02 ± 0.034.

TTTGGATACG: the switch fluorescence ratio stood at 1.01 ± 0.011.

As for TTTCAAGGGG, the switch fluorescence ratio is 0.996 ± 0.011.

Consider TCAACAGGA, for which the switch fluorescence ratio worked out at 1.01 ± 0.033.

For the sequence TGGTCGCAGC, the switch fluorescence ratio turned out to be 1.01 ± 0.018.

As to GCGGGTTGCT, the switch fluorescence ratio stood at 1.25 ± 0.39.

For GAAGATATTA, the switch fluorescence ratio amounted to 1 ± 0.011.

In the case of CGCCGCTTCA, the switch fluorescence ratio was 1.05 ± 0.067.

In the case of GTTAGCCTTG, the switch fluorescence ratio is 1 ± 0.039.

Take TACTAGGTTT: the switch fluorescence ratio came to 0.977 ± 0.019.

For GGTCGGGACG, the switch fluorescence ratio amounted to 0.9588 ± 0.0015.

For AGGAATGGTT, the switch fluorescence ratio stood at 0.992 ± 0.041.

Turning to CTAGTTAAAC, the switch fluorescence ratio stood at 1.01 ± 0.02.

Consider GGCGGGGGCC, for which the switch fluorescence ratio stood at 0.969 ± 0.016.

Consider ACGTGTTTGT, for which the switch fluorescence ratio came out at 1.03 ± 0.018.

Regarding TGGAAAAGGG, the switch fluorescence ratio was determined as 1.032 ± 0.0082.

In the case of AATCAGGGGG, the switch fluorescence ratio was 1.01 ± 0.04.

As for GTGGCTATCG, the switch fluorescence ratio was 0.993 ± 0.025.

Take CGGACGACGG: the switch fluorescence ratio was 1.01 ± 0.027.

As to GGTGAGACTT, the switch fluorescence ratio turned out to be 1 ± 0.031.

Regarding GAGGGGGCGT, the switch fluorescence ratio was 1.01 ± 0.04.

For the sequence CCGCCGGGGT, the switch fluorescence ratio is 1.91 ± 0.31.

Take TTTGCGGGAT: the switch fluorescence ratio is 1.03 ± 0.014.

For the sequence GGTAGCTAAG, the switch fluorescence ratio stood at 1 ± 0.034.

In the case of ATTTTTTGTT, the switch fluorescence ratio was 0.976 ± 0.047.

As for TAGTTGACTG, the switch fluorescence ratio was determined as 1.04 ± 0.072.

Regarding GGGGACGGAT, the switch fluorescence ratio was found to be 1.04 ± 0.052.

For TGATTAATTT, the switch fluorescence ratio was found to be 0.984 ± 0.011.

For the sequence TTAAAAAGTA, the switch fluorescence ratio came to 1.03 ± 0.02.

With ATGTGCCTGC, the switch fluorescence ratio came to 1.07 ± 0.03.

As for GTTGGTATAG, the switch fluorescence ratio was 1.01 ± 0.025.

With ATTTGTGAGG, the switch fluorescence ratio worked out at 0.9782 ± 0.0093.

Consider GCAAGACGTT, for which the switch fluorescence ratio turned out to be 1.51 ± 0.045.

As to GGGAAGTTTT, the switch fluorescence ratio came out at 0.978 ± 0.027.

In the case of TATAGTGCTC, the switch fluorescence ratio amounted to 0.986 ± 0.054.

On to GTTTCCAATC, for which the switch fluorescence ratio amounted to 1.02 ± 0.06.

For the sequence CTATTAGGGT, the switch fluorescence ratio came out at 0.999 ± 0.052.

For TTAACAGGGG, the switch fluorescence ratio was found to be 1.33 ± 0.26.

With AACAGGACAT, the switch fluorescence ratio amounted to 1.06 ± 0.017.

With AATTTTGGAG, the switch fluorescence ratio was determined as 0.996 ± 0.02.

For the sequence GACCCTGGGT, the switch fluorescence ratio turned out to be 1.06 ± 0.033.

CGGTTAGTTC: the switch fluorescence ratio came to 0.946 ± 0.023.

Take GGGTGAAATT: the switch fluorescence ratio was 0.986 ± 0.035.

CTACTAATTA: the switch fluorescence ratio was 1.026 ± 0.0031.

Turning to ATTAGTCGCG, the switch fluorescence ratio amounted to 1.01 ± 0.014.

With TGCACAATCG, the switch fluorescence ratio was 1.01 ± 0.1.

AGCGAGACGT: the switch fluorescence ratio worked out at 1.12 ± 0.034.

On to GCGGGCCTTT, for which the switch fluorescence ratio amounted to 1.015 ± 0.0066.

Turning to AGGAAGAGAG, the switch fluorescence ratio was determined as 1.016 ± 0.0083.

On to GCTAGCCAAA, for which the switch fluorescence ratio is 0.998 ± 0.011.

GCCAACGCTG: the switch fluorescence ratio was 1.1 ± 0.046.

With CTATATTTTT, the switch fluorescence ratio came to 1.01 ± 0.025.

With TTATAATCCG, the switch fluorescence ratio was 0.988 ± 0.031.

In the case of AACGTTGCCC, the switch fluorescence ratio is 1.01 ± 0.025.

For TACAGGGCCT, the switch fluorescence ratio was 0.9882 ± 0.0085.

As to TGCAAAAAAT, the switch fluorescence ratio was 1.02 ± 0.011.

Regarding GGGGGGGGTC, the switch fluorescence ratio was 0.989 ± 0.034.

TTTTCGGGTT: the switch fluorescence ratio came out at 1 ± 0.04.

For the sequence TATGGTGGGG, the switch fluorescence ratio came to 0.986 ± 0.034.

In the case of GATAGGTG, the switch fluorescence ratio worked out at 1.21 ± 0.1.

As for CGGAGAGATG, the switch fluorescence ratio is 1.042 ± 0.0034.

TGAAAGATTT: the switch fluorescence ratio is 1 ± 0.03.

Turning to GCTTGGATAA, the switch fluorescence ratio stood at 1.02 ± 0.032.

With TAGCAAAAGG, the switch fluorescence ratio worked out at 1.03 ± 0.015.

Regarding ATGTCAGGAA, the switch fluorescence ratio turned out to be 1.02 ± 0.041.

As to GTTTGTTACT, the switch fluorescence ratio turned out to be 0.964 ± 0.052.

As to GTTATATGTT, the switch fluorescence ratio came out at 1 ± 0.03.

As for TTGAGTGAAA, the switch fluorescence ratio was 0.999 ± 0.0017.

Turning to TAAAGGTTGT, the switch fluorescence ratio turned out to be 0.994 ± 0.055.

For the sequence GAGAGGGGGT, the switch fluorescence ratio was 0.998 ± 0.05.

For TCCCAGCTGT, the switch fluorescence ratio was determined as 1.12 ± 0.033.

On to ACCCTTCCAA, for which the switch fluorescence ratio was found to be 1.72 ± 0.072.

On to TTACGGATTC, for which the switch fluorescence ratio stood at 1.39 ± 0.5.

On to TAAGGGTCTT, for which the switch fluorescence ratio came to 0.996 ± 0.047.

In the case of AATAAAGGGT, the switch fluorescence ratio stood at 1.02 ± 0.027.

In the case of GAGGGAAGGG, the switch fluorescence ratio worked out at 0.994 ± 0.011.

For the sequence GTAGGGATGG, the switch fluorescence ratio is 1.03 ± 0.013.

On to TCTGTGGCAA, for which the switch fluorescence ratio came to 1.18 ± 0.28.

On to AGGCGCACGG, for which the switch fluorescence ratio came out at 1.01 ± 0.029.

In the case of GTGTTGGTAG, the switch fluorescence ratio worked out at 0.984 ± 0.018.

For TTCGAAAGTT, the switch fluorescence ratio was determined as 0.987 ± 0.026.

As to GATGTTAAAC, the switch fluorescence ratio was found to be 1.06 ± 0.02.

Regarding GGTAGGCAGG, the switch fluorescence ratio is 1 ± 0.021.

On to TAGGGGATAG, for which the switch fluorescence ratio amounted to 1.02 ± 0.032.
